The values below come from the Human Domainome abundance scans (Beltran et al. 2025).

± gives the uncertainty stated by the source.

First the molecules themselves.
B1: Tripartite motif-containing protein 49C, residues 87 to 133; numbered along this chain, P0CI26 (parent)
chain: SSEEQMCGTHRETKKIFCEVDRSLLCLLCSSSQEHRYHRHRPIEWAA

Variants of B1 are the subject of this series. The series can be described thus: abundance fitness (aPCA) (normalised: wild type 0, dead -1); higher = more abundant; growth selection in yeast, the domain comes from the species named. The settings on record: Homo sapiens.
Consider SSEEQMCGTHRETKKIFCEVDRSLLCLLCTSSQEHRYHRHRPIEWAA, for which the abundance fitness is -0.19 ± 0.12.
As for SSEEQMCGTHRETKKIFCEVDRSLLCELCSSSQEHRYHRHRPIEWAA, the abundance fitness stood at 0.437 ± 0.08.
As to SSEEQMCGTHRETKKIFCEVDRSLLCFLCSSSQEHRYHRHRPIEWAA, the abundance fitness is -0.015 ± 0.083.
As for SSEEQMCGTHRETKKIFCDVDRSLLCLLCSSSQEHRYHRHRPIEWAA, the abundance fitness was -0.297 ± 0.2.
In the case of SSEEQMCGTHRETKKIICEVDRSLLCLLCSSSQEHRYHRHRPIEWAA it was -0.464 ± 0.15.
In the case of SSEEQMCGTHRETKKICCEVDRSLLCLLCSSSQEHRYHRHRPIEWAA it was -0.77 ± 0.2; in that of SSEEQMCGTHRETKKIGCEVDRSLLCLLCSSSQEHRYHRHRPIEWAA, -0.664 ± 0.095; in that of SSEEQMCGTHRETKKIFCEVDRSLLCLLCSDSQEHRYHRHRPIEWAA, -0.251 ± 0.14.
Turning to SSEEQMCGTHRETKKIFCEVDRSLRCLLCSSSQEHRYHRHRPIEWAA, the abundance fitness was -0.45 ± 0.11.
In the case of SSEEQMCGTHRETKKIFCEVDRSLECLLCSSSQEHRYHRHRPIEWAA it was -0.586 ± 0.18.
In the case of SSEEQMCGTHRETKKIFCEVDRSLICLLCSSSQEHRYHRHRPIEWAA it was -0.033 ± 0.4; in that of SSEEQMCGTHRETKKIFCEVDRSLNCLLCSSSQEHRYHRHRPIEWAA, -0.502 ± 0.41.
For the variant SSEEQMCGTHRETKKIFCEVDRSLTCLLCSSSQEHRYHRHRPIEWAA, the abundance fitness is -0.612 ± 0.16.
In the case of SSEEQMCGTHRETKKIFCEVDRSLPCLLCSSSQEHRYHRHRPIEWAA it was -1.06 ± 0.27; in that of SSEEWMCGTHRETKKIFCEVDRSLLCLLCSSSQEHRYHRHRPIEWAA, -0.465 ± 0.12; in that of SSEEQMCGTHRETKKIFCEVDRSLLCLHCSSSQEHRYHRHRPIEWAA, -0.246 ± 0.2.
In the case of SSEEQMCGTHRETKKIFCEVDRSLLCLVCSSSQEHRYHRHRPIEWAA it was 0.186 ± 0.094; in that of SSEEQMCGTHRETKKIFCEVDRSLLCLSCSSSQEHRYHRHRPIEWAA, 0.12 ± 0.092.
Turning to SSEEQMCGTHRETKKIFCEVDRSLLTLLCSSSQEHRYHRHRPIEWAA, the abundance fitness is -1.05 ± 0.38.
In the case of SSEEQMCGTHRETKKIFCEVDRSLLSLLCSSSQEHRYHRHRPIEWAA it was -0.777 ± 0.14; in that of SSEEQMCGTHFETKKIFCEVDRSLLCLLCSSSQEHRYHRHRPIEWAA, -0.613 ± 0.29; in that of SSEEQMCGTHRETKKIFCEVDRSLLCLLCSSSQEMRYHRHRPIEWAA, -0.916 ± 0.17.
In the case of SSEEQMCGTHRETKKIFCEVDRSLLCLLCSSSQEVRYHRHRPIEWAA it was -0.892 ± 0.12.
In the case of SSEEQMCWTHRETKKIFCEVDRSLLCLLCSSSQEHRYHRHRPIEWAA it was -0.199 ± 0.094.
For SSEEQMCVTHRETKKIFCEVDRSLLCLLCSSSQEHRYHRHRPIEWAA, the abundance fitness is -0.02 ± 0.085.
Turning to SSEEQMCMTHRETKKIFCEVDRSLLCLLCSSSQEHRYHRHRPIEWAA, the abundance fitness is 0.131 ± 0.096.
Consider SSEEQMCGTHRETKKIFCEVDRSLLCLLCSSSQEHRYHRHRPIEWKA, for which the abundance fitness is -0.368 ± 0.16.
In the case of SSEEQMCGTHRETKKIFCEVDRSLLCLLCSSSQEHRYHRHRPIEWSA it was 0.056 ± 0.089; in that of SSEEQMCGTHRETKKIFCEVDRMLLCLLCSSSQEHRYHRHRPIEWAA, -0.062 ± 0.14.
In the case of SSEEQMCGTHRETKKIFCEVDRELLCLLCSSSQEHRYHRHRPIEWAA it was 0.155 ± 0.11.
SSEEQMCGTHRETKKEFCEVDRSLLCLLCSSSQEHRYHRHRPIEWAA: the abundance fitness is -0.444 ± 0.13.
In the case of SSEEQMCGTHRETKKTFCEVDRSLLCLLCSSSQEHRYHRHRPIEWAA it was -0.399 ± 0.13.
In the case of SSEEQMCGTHRETKKIFTEVDRSLLCLLCSSSQEHRYHRHRPIEWAA it was -0.471 ± 0.11; in that of SSEEQMCGTHRETKKIFHEVDRSLLCLLCSSSQEHRYHRHRPIEWAA, -0.768 ± 0.16.
With SSEEQMCGTHRETKKIFWEVDRSLLCLLCSSSQEHRYHRHRPIEWAA, the abundance fitness is -0.907 ± 0.13.
In the case of SSEEQMCGTHRETKKIFKEVDRSLLCLLCSSSQEHRYHRHRPIEWAA, the abundance fitness was -0.381 ± 0.2.
In the case of SSEEQMCGTHRETKKIFCERDRSLLCLLCSSSQEHRYHRHRPIEWAA it was -0.026 ± 0.078; in that of SSEEQMCGTHRETKKIFCETDRSLLCLLCSSSQEHRYHRHRPIEWAA, -0.067 ± 0.08; in that of SSEEQMCGTHRETKKIFCESDRSLLCLLCSSSQEHRYHRHRPIEWAA, -0.07 ± 0.073.
In the case of SSEEQMCGTHRETKKIFCEQDRSLLCLLCSSSQEHRYHRHRPIEWAA, the abundance fitness stood at 0.052 ± 0.11.
Consider SSEEQMCGTHRETKKIFCEKDRSLLCLLCSSSQEHRYHRHRPIEWAA, for which the abundance fitness was 0.161 ± 0.17.
In the case of SSEEQMCGTHRETKKIFCEVDRSLLCLLCSSSQMHRYHRHRPIEWAA it was -0.496 ± 0.12; in that of SSEEQMCGTHRETKKIFCEVDRSLLCLLCSSSQTHRYHRHRPIEWAA, -0.349 ± 0.1.
In the case of SSEEQMCGTHRETKKIFCEVDRSLLCLLCSSSQNHRYHRHRPIEWAA it was -0.417 ± 0.15.
For the variant SSEEQMCGTHRETKKIFCEVDRSLLCLLCSSSQIHRYHRHRPIEWAA, the abundance fitness is -0.818 ± 0.19.
In the case of SSEEQMCGTHRETKKIFCEVDRSLLCLLCSSSQGHRYHRHRPIEWAA it was -0.492 ± 0.095; in that of SSEEQMCGTDRETKKIFCEVDRSLLCLLCSSSQEHRYHRHRPIEWAA, -0.303 ± 0.15.
Take SSEEQMCGTSRETKKIFCEVDRSLLCLLCSSSQEHRYHRHRPIEWAA: the abundance fitness was -0.613 ± 0.099.
In the case of SSEEQMCGTCRETKKIFCEVDRSLLCLLCSSSQEHRYHRHRPIEWAA, the abundance fitness is -0.523 ± 0.12.
Consider SSEEQMCGTHRETWKIFCEVDRSLLCLLCSSSQEHRYHRHRPIEWAA, for which the abundance fitness was -0.431 ± 0.11.
In the case of SSEEQMCGTHRETRKIFCEVDRSLLCLLCSSSQEHRYHRHRPIEWAA it was 0.02 ± 0.082; in that of SSEEQMCGTHRETGKIFCEVDRSLLCLLCSSSQEHRYHRHRPIEWAA, -0.518 ± 0.085.
In the case of SSEEQMCGTHRETNKIFCEVDRSLLCLLCSSSQEHRYHRHRPIEWAA it was -0.419 ± 0.2; in that of SSEEQMCGTHRETKKIFCEVRRSLLCLLCSSSQEHRYHRHRPIEWAA, -0.152 ± 0.083.
Take SSEEQMCGTHRETKKIFCEVMRSLLCLLCSSSQEHRYHRHRPIEWAA: the abundance fitness is -0.604 ± 0.14.
